Measurements from the supplement of paper PMC9732359.
± gives the uncertainty stated by the source.

Assay: protein stability index of a GFP-peptide fusion (yeast GPS) (PSI 1-4); higher = more stable; sorted into four equal gates, so the index is relative within each strain
Summary of the method: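 Plasmids isolated from each sorting gate were PCR-amplified and Illumina-sequenced, and barcodes assigned the reads to strains. The gates, four of equal size, were set by GFP/Cherry fluorescence ratio on mid-log cultures in leucine-free medium. These cultures were yeast carrying a pooled library of tiled 17-residue yeast protein peptides fused downstream of GFP on a plasmid that also expresses Cherry. The protein stability index is the sum of every gate's read frequency times its gate number.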

Sequence	protein stability index (doa10∆)	protein stability index (san1∆)	protein stability index (ubr1∆)	protein stability index (pdr5∆)
ANRDDVKGRENELLLPS [RPC82]	3.37 ± 0.14	3.6 ± 0.09	3.34 ± 0.084	–
ANRSRFNNEAPPQTRKF [SMB1]	3.05 ± 0.083	2.87 ± 0.069	3.26 ± 0.047	3.03 ± 0.049
APGASVPATAAPGTEAG [SWI1]	2.99 ± 0.094	2.92 ± 0.079	3.18 ± 0.07	3.05 ± 0.075
APGTEAGIVPVSANTPK [SWI1]	3.06 ± 0.053	3.08 ± 0.053	3.18 ± 0.054	2.94 ± 0.065
APIPKQLLQRIPNIPPN [GAL11]	2.69 ± 0.063	2.6 ± 0.07	2.54 ± 0.049	2.63 ± 0.066
APKWYPSEDVAAPKKTR [RPL6B]	2.13 ± 0.093	1.87 ± 0.092	1.98 ± 0.1	2.09 ± 0.065
APLAKVVFRDPYKYRLR [RPL2A]	2.93 ± 0.098	3.07 ± 0.06	3.13 ± 0.062	3.16 ± 0.1
APPLENENSNCLLSIPK [YML103C/NUP188]	1.86 ± 0.058	1.65 ± 0.16	1.71 ± 0.059	1.92 ± 0.057
APQVYIITKNENFLKEV [GAL11]	3.37 ± 0.24	–	3.5 ± 0.19	–
APSVPEFIYLTKVLQFA [SNF2]	2.82 ± 0.1	1.78 ± 0.12	2.91 ± 0.087	2.5 ± 0.087
AQAQAQAQAQVYAQQST [PGD1]	2.87 ± 0.053	2.97 ± 0.045	3.01 ± 0.044	3.05 ± 0.052
AQFAGRASIEYYVGQVM [DIS3]	3.46 ± 0.28	2.64 ± 0.17	–	2.84 ± 0.2
AQFLRSVVHPGEMVGVL [RPO21]	2.23 ± 0.081	2.3 ± 0.1	1.49 ± 0.054	1.93 ± 0.08
AQGDPNLEPLIAKLVAV [NUT1]	–	3.08 ± 0.19	1.07 ± 0.088	1.87 ± 0.13
AQGLLHLGKGTMTMDVF [RPN1]	2.47 ± 0.065	2.15 ± 0.081	1.89 ± 0.058	2.61 ± 0.066
AQKNTQSYGGRPYGVGL [PRE5]	3.38 ± 0.084	3.23 ± 0.076	3.26 ± 0.058	3.43 ± 0.075
AQKRVVSYMMPSLYRLL [SRB8]	1.18 ± 0.11	1.1 ± 0.12	1.29 ± 0.053	1.19 ± 0.067
AQLDGRIGVLQARMMQQ [NSL1]	2.21 ± 0.055	2.46 ± 0.056	2.61 ± 0.048	2.46 ± 0.043
AQPSVQSSFAGTWSAKE [FAS2]	2.74 ± 0.21	3.35 ± 0.076	3.09 ± 0.087	3.13 ± 0.14
AQYEVLANYLTSALSEL [QCR2]	1.94 ± 0.05	1.99 ± 0.067	1.68 ± 0.044	2.18 ± 0.04
ARERKTATYNDNMSEEQ [SNF2]	3.13 ± 0.11	3.46 ± 0.11	3.22 ± 0.085	2.91 ± 0.11
ARIFEFPKTTVAALRFT [RPL18A]	1.94 ± 0.11	2 ± 0.19	1.79 ± 0.098	1.67 ± 0.076
ARIKDAFITQLESSITD [YJL039C/NUP192]	2.83 ± 0.11	1.14 ± 0.11	–	2.25 ± 0.1
ARSGLRIGRIEDVTPVP [RPS14A]	2.69 ± 0.11	2.92 ± 0.097	2.85 ± 0.072	2.91 ± 0.12
ARTATVSKKWAAAAVCE [RPL14A]	2.9 ± 0.089	3.58 ± 0.11	2.71 ± 0.066	3.21 ± 0.084
ARVILYLKNVLFAFNGV [SIN4]	2.38 ± 0.064	1.42 ± 0.077	1.38 ± 0.042	1.57 ± 0.06

Sequence	protein stability index (doa10∆)	protein stability index (san1∆)	protein stability index (ubr1∆)	protein stability index (pdr5∆)
ARYNWICNPVHKHREAR [RPL15B]	2.94 ± 0.083	2.36 ± 0.11	3.04 ± 0.095	2.68 ± 0.088
ASDGGLYVPHSENRFPG [RPL5]	2.19 ± 0.1	2.93 ± 0.095	2.92 ± 0.057	2.61 ± 0.079
ASINTSATVKTSDLLGS [ECM29]	3.24 ± 0.24	–	3.25 ± 0.21	2.96 ± 0.21
ASMLGLFVFTEGWPKFQ [QCR10]	1.79 ± 0.1	–	2.82 ± 0.2	1.96 ± 0.099
ASSLRFGNSLSNTVNAN [YDL088C/ASM4]	2.81 ± 0.068	2.65 ± 0.059	2.89 ± 0.074	2.78 ± 0.075
ASSSPSSTDFSTCIVSL [ECM29]	2.81 ± 0.081	2.01 ± 0.1	1.84 ± 0.059	2.26 ± 0.07
ASTINGASIIQVIFEIF [YML103C/NUP188]	1.43 ± 0.059	1.95 ± 0.087	1.94 ± 0.046	1.9 ± 0.054
ASYSKYLIDHIKVDGAV [RPL22B]	2.92 ± 0.09	2.62 ± 0.053	2.83 ± 0.063	2.65 ± 0.11
ASYVNIPVIALTDLDSP [RPS0A]	1.92 ± 0.063	1.61 ± 0.17	1.88 ± 0.046	1.81 ± 0.064
ATANATANATANVNASA [DSN1]	2.78 ± 0.043	3.17 ± 0.032	2.918 ± 0.025	3 ± 0.037
ATDEESVRLQRFYQLGV [CSN12]	3.13 ± 0.16	2.92 ± 0.11	3.13 ± 0.099	3.13 ± 0.15
ATESIKNRRRIHGELKT [SMC1]	2.83 ± 0.17	2.28 ± 0.26	2.61 ± 0.14	3.09 ± 0.12
ATLKEIKSIIEQRKQKL [SMC3]	2.89 ± 0.087	3.16 ± 0.046	3.04 ± 0.052	3.16 ± 0.08
ATNRPDTLDPALLRPGR [RPT4]	2.91 ± 0.12	2.89 ± 0.1	3.1 ± 0.14	3.18 ± 0.14
ATPPLKRFKDMEYLSGG [SMC1]	2.93 ± 0.13	2.99 ± 0.047	3.01 ± 0.063	2.89 ± 0.09
ATRHVLMRQGVLGIKVK [RPS3]	2.07 ± 0.096	1.93 ± 0.095	2.07 ± 0.056	2.27 ± 0.073
ATTGGGLFGNKPNNTAN [YGL172W/NUP49]	3.62 ± 0.25	3.66 ± 0.083	3.54 ± 0.18	3.29 ± 0.21
AVAHHTDCKFIRVSGAE [RPT6]	3.04 ± 0.13	3.19 ± 0.14	2.92 ± 0.11	3.21 ± 0.16
AVAVVVDPIQSVKGKVV [RPN11]	2.22 ± 0.1	2.29 ± 0.094	2.84 ± 0.18	2.64 ± 0.14
AVIAAIMQEAGLRAVRK [RPT3]	–	–	–	1.15 ± 0.19
AVKRGTCAVGVKGKNCV [PRE6]	1.06 ± 0.11	1.39 ± 0.27	2.51 ± 0.17	1.62 ± 0.18
AVQNESVSSPIELNFDA [QCR2]	2.95 ± 0.059	2.86 ± 0.065	3.06 ± 0.042	2.95 ± 0.061
AVTEREVLVTPGLEFLD [MCD1]	2.85 ± 0.14	2.75 ± 0.089	2.94 ± 0.13	3.15 ± 0.15
AVYGPRSIRGSFTSQGT [MTR3]	3.16 ± 0.12	3.08 ± 0.098	3.02 ± 0.058	3.2 ± 0.086
AYAQVEIQPRANIQLDF [FAS2]	3.17 ± 0.061	3.08 ± 0.057	3.16 ± 0.049	3.06 ± 0.066
AYGVLDSNYKWDLSVED [PRE2]	3 ± 0.073	3.26 ± 0.086	3.42 ± 0.056	2.94 ± 0.083
